# T1: GST-DDRM1 (Arabidopsis thaliana, UniProt Q9ZW89 1-453)
# T1 sequence (looked up): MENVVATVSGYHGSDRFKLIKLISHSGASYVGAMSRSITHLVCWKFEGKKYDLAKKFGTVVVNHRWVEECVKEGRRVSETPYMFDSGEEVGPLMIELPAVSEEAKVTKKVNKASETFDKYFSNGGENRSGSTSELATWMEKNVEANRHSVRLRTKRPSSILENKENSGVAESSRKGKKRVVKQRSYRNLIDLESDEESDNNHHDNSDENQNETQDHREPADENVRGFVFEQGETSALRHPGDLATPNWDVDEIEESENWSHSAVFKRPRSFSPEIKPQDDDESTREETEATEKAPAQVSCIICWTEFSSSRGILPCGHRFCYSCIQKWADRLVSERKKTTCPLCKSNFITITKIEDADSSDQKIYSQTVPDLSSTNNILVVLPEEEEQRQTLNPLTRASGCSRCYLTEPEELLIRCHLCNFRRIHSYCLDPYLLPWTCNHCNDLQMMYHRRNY
# B1: MBP-SOG1 (natural protein, Arabidopsis thaliana, UniProt Q6NQK2 1-449, looked up)
# chain: MAGRSWLIDSNRIATKIMSASASSDPRQVVWKSNPSRHCPKCQHVIDNSDVVDDWPGLPRGVKFDPSDPEIIWHLLAKSGLSGLSSHPFIDEFIPTVNQDDGICYTHPKNLPGVKSDGTVSHFFHKAIKAYSTGTRKRRKIHDDDFGDVRWHKTGRTKPVVLDGVQRGCKKIMVLYGGKAVKTNWVMHQYHLGIEEDEKEGDYVVSKIFYQQPQQLVVKRGDKAEQEVSEDIFAAVTPTADPVTPKLATPEPRNAVRICSDSHIASDYVTPSDYVSAHEVSLAETSEVMCMEDEVQSIQPNHERPSSGPELEHGLENGAKEMLDDKEEQEKDRDNENQGEEDPTWFDSGSQFILNSQQLVEALSLCDDLLGSQDREENTNSGSLKDKQPCIADYAHLGPEDFKRDLEECQKIVLDPSNIELDTPPEFRLSQLEFGSQDSFLAWGTGKTD
# Target: T1, GST-DDRM1
# Assay: pull-down
binder,measurement,value
B1,binding result,binds

# From article PMC9169791 (Proceedings of the National Academy of Sciences of the …, 2022)
